# Experiments:
# Assay in all cases: MST
# [1] = target: human mutant SOD1^G85R (human, fluorescently labeled (NanoTemper BLUE protein-labeling kit) where it was the labelled partner in MST)
# Target sequence (chain, as listed by the source G85R): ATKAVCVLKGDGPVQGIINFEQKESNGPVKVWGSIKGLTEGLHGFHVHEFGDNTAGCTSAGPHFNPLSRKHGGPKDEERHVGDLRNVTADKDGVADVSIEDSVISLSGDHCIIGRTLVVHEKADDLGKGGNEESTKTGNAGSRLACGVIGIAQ
# [2] = target: wild type human SOD1 (Cu/Zn superoxide dismutase) (human, UniProt P00441 1-154, fluorescently labeled (NanoTemper BLUE protein-labeling kit) where it was the labelled partner in MST)
# [3] = target: human mutant SOD1^G93A (human, fluorescently labeled (NanoTemper BLUE protein-labeling kit) where it was the labelled partner in MST)
# Target sequence (chain, as listed by the source G93A): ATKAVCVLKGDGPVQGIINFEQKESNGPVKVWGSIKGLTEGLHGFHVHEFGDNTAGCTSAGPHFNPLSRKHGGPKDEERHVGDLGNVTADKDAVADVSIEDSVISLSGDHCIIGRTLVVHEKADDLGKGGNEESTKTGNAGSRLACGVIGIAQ
# Sequence of wild type human SOD1 (Cu/Zn superoxide dismutase) (P00441 whole entry): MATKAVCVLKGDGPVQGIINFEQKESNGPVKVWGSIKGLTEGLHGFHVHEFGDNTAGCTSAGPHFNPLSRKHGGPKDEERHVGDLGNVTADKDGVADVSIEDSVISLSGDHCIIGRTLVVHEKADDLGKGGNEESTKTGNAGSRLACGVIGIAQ
binder,measurement,setting,value
MAVPPTYADLGKSARDVFTKGYGFGL [1-26 N-Terminal peptide of VDAC1],EC50,[1],3.75 µM
same,EC50,[2],> 200 µM
same,EC50,[3],3.75 µM

# From publication PMC6702328 (2019)
